Measurements from patent US20240026407A1, “MODIFICATION OF SAPONINS” (GLAXOSMITHKLINE BIOLOGICALS SA, priority 2020, published 2024).

Experiments:
Format in all cases: biochemical, Quillaja saponaria
[1] = Experiment 5-3: screening of additional glucosidases for deglycosylation with QS-18 in treated bark extract (80%) at pH 6 and 35 deg C; details: TBE 80% (QS-21 approx. 4 g/L), pH 6, 35 deg C; UV HPLC
Experimental: Experiment 5-1 was repeated, replacing CBE with Treated Bark Extract (TBE) at pH 6. TBE was prepared from CBE by PVPP treatment and concentration, to provide TBE with a QS-21 concentration of approximately 4 g/L. TBE was adjusted to pH 6 by dropwise addition of 2M NaOH with stirring.

[2] = Experiment 5-1: screening of additional glucosidases for deglycosylation with purified QS-18 (0.04 mg/ml) at pH 7.5 and 30 deg C; details: pH 7.5, 30 degrees C, 18 hours, LCMS/MS
Experimental: The 94 additional genes, together with positive control (DNA encoding SEQ ID No. 262) and negative control, were transformed, expressed, lysed and reacted in the same manner as described above for Experiment 4-1, except the reaction was incubated at 30 degrees C. for 18 hours.
Samples were analysed by LCMS/MS according to the procedure in Experiment 4-1.

[3] = Experiment 5-2: screening of additional glucosidases for deglycosylation with QS-18 in crude bark extract (80%) at pH 6 and 35 deg C; details: CBE 80%, pH 6, 35 deg C, 18 hours; UV HPLC
In short: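 Deglycosylation of QS-18 was monitored by UV HPLC after MeCN/AcOH quench with hexanophenone. The reaction ran 18 hours at 35 deg C, shaking, combining clarified pH 6 lysate with crude bark extract neutralised to pH 6 by NaOH.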

Molecule | Experiment 5-3 % conv [1] | Experiment 5-1 % conv [2] | Experiment 5-2 % conv [3]
826 (protein, Bifidobacterium saeculare) MSDYPSVNDLTLEEKAALTSGTNPWSLGNVAAKGLPNYTITDGPHGLRKAQNTESMDVEENVPATCFPPAAGMACSWNPELVERVGEAMGEECIQEQVAVILGPGVNIKRNPLGGRCFEYWSEDPYLAGHTAVGIVKGVQSKGVGTSLKHFAANNQETDRLRISATISPRAMREIYLPAFEYIVKTAQPWTVMCSYNKINGVFSSQNRWLLTDVLRGEWGFKGIVMSDWGAVSDRVAALNAGLNLEMPPSNTDDQIVAAAKDGRIPAAQLDEMAQGMIDLVAKARPAMSRDGYRYDVDAHNEVARQAAVESMVLLKNEDATLPVAKGAKIAVIGEFARTPRYQGAGSSLINPTKLTSFLDAIEERGVAADFAPGFTLDDAAQDPALTEQAVTAAQQADVVLLFLGLPAAYESEGFDRTTLDIPAKQVEVLDAVAAANPNVAVVLSNGSVVSMPWRGRAKAILETWLLGQAGGAALADVIFGDETPSGKLAQTIIDDVNDDPSAMNWPGEEGHVDYGEGVFVGYRYHDTFRKQVTYPFGYGLSYATFDVHDATVAKTGPRTAEVTVTVTNTSDVAGAETVQVYVAPPKAKVARPVHELKGFAKVALEPGESKNVTIALDDRAFAYWSERFDDWHVEGGTYTVEVGVSSRDIVSRIDVEIDDDGKIMNLDEWSTFGEWLDDPIGAPILQHVLDDMAKEAGHPVIPDSALMVMFLRSMPLRSLSVILGEAGEQVAANLTEAYRKATA | 1.4% | 86.9% | 0.8%
879 (protein, listed as Morchella conica) MTVSPLPKDLQKKVNDVLDSLTLLEQVSLLAGKDFWRTVEIPGKVPSIKVTDGPSGARGQFFSGGTKAAFFPSGVSLAATFDPELITHIGNALGQETKTKAAQVLLAPTACNHRSPLGGRNFESFSEDPYLSGKLAASYISGVQAEGVAVTMKHFVANEQETKRFSVNEIIDERALREIYLKPFEIAVREAGPWGIMSSYNKVNAHHADLHPFSMKQVLRAEWGWDGLVMSDWGGTNSTAESLIAGLDLEMPGPTRRRGELLLKAVQDTNSSPELLAAIKTGARHVLELIARTGRWGKFQEAEEQAVDKLEHRELIRKTGAHGIVLLKNEGATLPIKREQIKSVAWIGPNANETIAGGGGSANLNPHYLTNPLESFTAAVEENDIKVAYEIGCQTEKWVRVFPVEEGRARTAPSATEGAPGLKVDFFGGRECSGECVASNVMTTSNIFLMDGKPPVLGDQDYSVRITTYIRPEATGEHVVGVGSIGPTKIYVDDKLLIDHTHWIELGELFFTSGSEEVTQKIHLEAGKWYKLVAETTSKSPEQKLPDMGNDNLDFASAIGIRLGIDAVRDVQEYIDRAATLAKKSDVAVVVVGMNNEWESEGYDRHTMALPGKQNELIEAVVKANPNTIVVNQSGCPVTMPWLDRVPAVLQAWYQGQEAGNALVDVLLGKVNPSGRLPITFPKRLEDNPSFGNFGDGGEKNQIAYTEGIYVGYRHYNSRDIPVLFPFGFGLSYTSFELGAPTVDQAAFEIGKKITVQVPVKNTGAIKGIETVQVYLAPKKSAVDRPKRELKGFAKIELEAGESGVARIELDHYAPGLFCEERKCWRALEGAYVVEVGRNVQEIDGSVEVAVEREYEWVF | <0.5% | 90.1% | <0.5%
868 (protein, listed as Dictyoglomus thermophilum) MKLEYKIPYRIERGEQTNFSPLFIRIISQGGKQMEKDIKKLISQMTLEEKASLCSGLDFWHTKPIERLGIPSIRMSDGPHGLRKEETMFSKTVPATCFPTAVTIAASWDKLLAEKMGKAIGEECQAENVQILLGPGINMKRSPLCGRNFEYYSEDPILAGELAAHFIKGVQSQGVGTSLKHFAANNQEHRRLTVDAIIDERTLREIYLTAFEKAVKEAKPWTVMCSYNKVNGTYASENEFLLTKVLREEWGFEGFVVSDWGAVNDRVKGLAAGLDLQMPYDGGNGDKKIIEAVKSGKLPEEVLDRAVERILKIVFKAIENKKENATYDKEAHHKLAREIARECFVLLKNENNILPLKKEGKIALIGAFAKKPQIQGGGSAHVNPTRVDDAVEEIKKLVGDKVEILYADGYHIEKDDVDEKLIEEAKEIAKKADVVVIFAGLPERYESEGFDRPHMKMPESHNRLIEEVAKVNSNLVVVLSNGAPIEMPWVDKPKAILETYRGGQAWGGAVADVLFGVVNPSGKLPESFPKKLSDNPSYLFFPGEDDRSEYREGIFIGYRYYDKKEMEVLFPFGYGLSYTTFEYSDLKLDKKEMKDDEVLKVSVKVKNTGKVKGKEIVQLYVRDVKSNYIRPEKELKGFEKVELEPGEEKEVVFYLDKRAFAFYNIDIKDWYVEDGEFEILIGKSSRDIVLKDKVFVKSTTKIKRHYHINSTIGDIMSDPEASAKFKHILEQFASAFPAFSSEEAIMNFAEMMKYMPLRNLIHFGQGKFTEEMLENLLKEINS | <0.5% | 89.9% | <0.5%
